Measured values from patent US8357523B2, “Beta-glucosidase variant enzymes and related polynucleotides” (Codexis, Inc., priority 2009, dated 2013).

Assay: High throughput cellobiose assay: fold improvement in cellobiase activity of CelA variants over a control enzyme (Tables 2A-2D, 3, 5, 6, 7)
Format: biochemical
Conditions: 3.3 g/l cellobiose, 55° C. and pH 6.0

Row | Molecule | Fold improvement over Control Variant No. 5 from Table 2A
1 | 74 (protein) STAIAQEGAAPAAILHPEKWPRPATQRLIDPAVEKRVDALLKQLSVEEKVGQVIQGDIGTITPEDLRKYPLGSILAGGNSGPNGDDRAPPKEWLDLADAFYRVSLEKRPGHTPIPVLFGIDAVHGHGKIGSATIFPHNIALGATRDPELLRRIGEVTAVEMAATGIDWTFAPALSVVRDDRWGRTYEGFSEDPEIVAAYSPAIVEGVQGKFGSKDFMAPGRIVACAKHFLADGGTDQGRDQGDARISEDELIRIHNAGYPPAIDAGVLTVMASFSSWQGIKHHGHKQLLTDVLKGQMGFNGFIVGDWNAHDQVPGCTKFNCPTSLIAGLDMYMAADSWKQLYENTLAQVKDGTIPMARLDDAVRRILRVKVLAGLFEKPAPKDRPGLPGLETLGSPEHRAVGREAVRKSLVLLKNDKGTLPLSPKARVLVAGDGADNIGKQSGGWTISWQGTGNRNDEFPGATSILGGIRDAVADAGGSVEFDVAGQYKTKPDVAIVVFGEEPYAEFQGDVETLEYQPDQKQDLALLKKLKDQGIPVVAVFLSGRPMWVNPELNASDAFVAAWLPGTEGGGVADVLFTDKAGKVQHDFAGKLSYSWPRTAAQTTVNRGDADYNPLFAYGYGLTYKDKSKVGTLPEESGVPAEARQNAGIYFRAGALRLPGRFL | ++ (++ = 1.1 to 6 fold improvement over control Variant No. 2)
2 | 149 (protein) STAIAQEGAAPAAILHPEKWPRPATQRLIDPAVEKRVDALLKQLSVEEKVGQVIQGDIGTITPEDLRKYPLGSILAGGDSGPNGDDRAPPKEWLDLADAFYRVSLEKRPGHTPIPVLFGIDAVHGHGKIGSATIFPHNIALGATRSPELLRRIGEVTAQEMAATGIDWTFAPALSVVRDDRWGRTYEGFSEDPEIVAAYSPAIVEGVQGKYGSKDFMAPGRIVACAKHFLADGGTDQGRDQGDARISEDELIRIHNAGYPPAIDAGVLTVMASFSSWQGIKHHGHKQLLTDVLKGQMGFNGFIVGDWNAHDQVPGCTKFNCPTSLIAGLDMYMAADSWKQLYENTLAQVKDGTIPMARLDDAVRRILRVKVLAGLFEKPAPKDRPGLPGLETLGSPEHRAVGREAVRKSLVLLKNDKGTLPLSPKARVLVAGDGADNIGKQSGGWTISWQGTGNRNDEFPGATSILGGIRDAVADAGGSVEFDVAGQYKTKPDVAIVVFGEEPYAEFQGDVETLEYQPDQKQDLALLKKLKDQGIPVVAVFLSGRPMWVNPELNASDAFVAAWLPGTEGGGVADVLFTDKAGKVQHDFAGKLSYSWPRTAAQTTVNRGDADYNPLFAYGYGLTYKDKSKVGTLPEESGVPAEARQNAGIYFRAGALRLPGRFL | +++ (+++ = 6 to 13 fold improvement over control Variant No. 2)
3 | 150 (protein) STAIAQEGAAPAAILHPEKWPRPATQRLIDPAVEKRVDALLKQLSVEEKVGQVIQGDIGTITPEDLRKYPLGSILAGGDSGPNGDDRAPPKEWLDLADAFYRVSLEKRPGHTPVPVLFGIDAVHGHGKIGSATIFPHNIALGATRDPELLRRIGEVTAVEMTATGIDWTFAPALSVVRDDRWGRTYEGFSEDPEIVASYSAAIVEGVQGKYGSKDFMAPGRIVACAKHFLADGGTDQGRDQGDARISEDELIRIHNAGYPPAIDAGVLTVMASFSSWQGIKHHGHKQLLTDVLKGQMGFNGFIVGDWNAHDQVPGCTKFNCPTSLIAGLDMYMAADSWKQLYENTLAQVKDGTIPMARLDDAVRRILRVKVLAGLFEKPAPKDRPGLPGLETLGSPEHRAVGREAVRKSLVLLKNDKGTLPLSPKARVLVAGDGADNIGKQSGGWTISWQGTGNRNDEFPGATSILGGIRDAVADAGGSVEFDVAGQYKTKPDVAIVVFGEEPYAEFQGDVETLEYQPDQKQDLALLKKLKDQGIPVVAVFLSGRPMWVNPELNASDAFVAAWLPGTEGGGVADVLFTDKAGKVQHDFAGKLSYSWPRTAAQTTVNRGDADYNPLFAYGYGLTYKDKSKVGTLPEESGVPAEARQNAGIYFRAGALRLPGRFL | +++ (+++ = 6 to 13 fold improvement over control Variant No. 2)
4 | 153 (protein) STAIAQEGAAPAAILHPEKWPRPATQRLIDPAVEKRVDALLKQLSVEEKVGQVIQGDIGTITPEDLRKYPLGSILAGGDSGPNGDDRAPPKVWLDLADAFYRVSLEKRPGHTPIPVLFGIDAVHGHGKIGSATIFPHNIALGMTRDPELLRRIGEVTAVEMAATGIDWTFAPALSVVRDDRWGRTYEGFSEDPEIVAAYSPAIVEGVQGKYGSKDFMAPGRSVACAKHFLADGGTDQGRDQGDARISEDELIRIHNAGYPPAIDAGVLTVMASFSSWQGIKHHGHKQLLTDVLKGQMGFNGFIVGDWNAHDQVPGCTKFNCPTSLIAGLDMYMAADSWKQLYENTLAQVKDGTIPMARLDDAVRRILRVKVLAGLFEKPAPKDRPGLPGLETLGSPEHRAVGREAVRKSLVLLKNDKGTLPLSPKARVLVAGDGADNIGKQSGGWTISWQGTGNRNDEFPGATSILGGIRDAVADAGGSVEFDVAGQYKTKPDVAIVVFGEEPYAEFQGDVETLEYQPDQKQDLALLKKLKDQGIPVVAVFLSGRPMWVNPELNASDAFVAAWLPGTEGGGVADVLFTDKAGKVQHDFAGKLSYSWPRTAAQTTVNRGDADYNPLFAYGYGLTYKDKSKVGTLPEESGVPAEARQNAGIYFRAGALRLPGRFL | ++ (++ = 1.1 to 6 fold improvement over control Variant No. 2)
5 | 154 (protein) STAIAQEGAAPAAILHPEKWPRPATQRLIDPAVEKRVDALLKQLSVEEKVGQVIQGDIGTITPEDLRKYPLGSILAGGNSGPNGDDRAPPKEWLDLADAFYRVSLEKRPGHTPIPVLFGIDAVHGHGNIGSATIFPHNIALGMTRDPELLRRIGEVTAQEMAATGIDWTFAPALSVVRDDRWGRTYEGFSEDPEIVAAYSPAIVEGVQGKYGSKDFMAPGRAVACAKHILADGGTDQGRDQGDARISEDELIRIHNAGYPPAIDAGVLTVMASFSSWQGIKHHGHKQLLTDVLKGQMGFNGFIVGDWNAHDQVPGCTKFNCPTSLIAGLDMYMAADSWKQLYENTLAQVKDGTIPMARLDDAVRRILRVKVLAGLFEKPAPKDRPGLPGLETLGSPEHRAVGREAVRKSLVLLKNDKGTLPLSPKARVLVAGDGADNIGKQSGGWTISWQGTGNRNDEFPGATSILGGIRDAVADAGGSVEFDVAGQYKTKPDVAIVVFGEEPYAEFQGDVETLEYQPDQKQDLALLKKLKDQGIPVVAVFLSGRPMWVNPELNASDAFVAAWLPGTEGGGVADVLFTDKAGKVQHDFAGKLSYSWPRTAAQTTVNRGDADYNPLFAYGYGLTYKDKSKVGTLPEESGVPAEARQNAGIYFRAGALRLPGRFL | ++ (++ = 1.1 to 6 fold improvement over control Variant No. 2)
6 | 75 (protein) STAIAQEGAAPAAILHPEKWPRPATQRLIDPAVEKRVDALLKQLSVEEKVGQVIQGDIGTITPEDLRKYPLGSILAGGNSGPNGDDRAPPKEWLDLADAFYRVSLEKRPGHTPIPVLFGIDAVHGHGNIGSATIFPHNIALGATRDPELLRRIGEVTAVEMAATGIDWTFAPALSVVRDDRWGRTYEGFSEDPEIVAAYSAAIVEGVQGKFGSKDFMAPGRVVASAKHFLADGGTDQGRDQGDARISEDELIRIHNAGYPPAIDAGVLTVMASFSSWQGIKHHGHKQLLTDVLKGQMGFNGFIVGDWNAHDQVPGCTKFNCPTSLIAGLDMYMAADSWKQLYENTLAQVKDGTIPMARLDDAVRRILRVKVLAGLFEKPAPKDRPGLPGLETLGSPEHRAVGREAVRKSLVLLKNDKGTLPLSPKARVLVAGDGADNIGKQSGGWTISWQGTGNRNDEFPGATSILGGIRDAVADAGGSVEFDVAGQYKTKPDVAIVVFGEEPYAEFQGDVETLEYQPDQKQDLALLKKLKDQGIPVVAVFLSGRPMWVNPELNASDAFVAAWLPGTEGGGVADVLFTDKAGKVQHDFAGKLSYSWPRTAAQTTVNRGDADYNPLFAYGYGLTYKDKSKVGTLPEESGVPAEARQNAGIYFRAGALRLPGRFL | ++ (++ = 1.1 to 6 fold improvement over control Variant No. 2)
7 | 152 (protein) STAIAQEGAAPAAILHPEKWPRPATQRLIDPAVEKRVDALLKQLSVEEKVGQVIQGDIGTITPEDLRKYPLGSILAGGDSGPNGDDRAPPKEWLDLADAFYRVSLEKRPGHTPIPVLFGIDAVHGHGNIGSATIFPHNIALGATRDPELLRRIGEVTAQEMAATGIDWTFAPALSVVRDDRWGRTYEGFSEDPEIVAAYSPAIVEGVQGKYGSKDFMAPGRAVACAKHFLADGGTDQGRDQGDARISEDELIRIHNAGYPPAIDAGVLTVMASFSSWQGIKHHGHKQLLTDVLKGQMGFNGFIVGDWNAHDQVPGCTKFNCPTSLIAGLDMYMAADSWKQLYENTLAQVKDGTIPMARLDDAVRRILRVKVLAGLFEKPAPKDRPGLPGLETLGSPEHRAVGREAVRKSLVLLKNDKGTLPLSPKARVLVAGDGADNIGKQSGGWTISWQGTGNRNDEFPGATSILGGIRDAVADAGGSVEFDVAGQYKTKPDVAIVVFGEEPYAEFQGDVETLEYQPDQKQDLALLKKLKDQGIPVVAVFLSGRPMWVNPELNASDAFVAAWLPGTEGGGVADVLFTDKAGKVQHDFAGKLSYSWPRTAAQTTVNRGDADYNPLFAYGYGLTYKDKSKVGTLPEESGVPAEARQNAGIYFRAGALRLPGRFL | +++ (+++ = 6 to 13 fold improvement over control Variant No. 2)
8 | 151 (protein) STAIAQEGAAPAAILHPEKWPRPATQRLIDPAVEKRVDALLKQLSVEEKVGQVIQGDIGTITPEDLRKYPLGSILAGGNSGPNGDDRAPPKEWLDLADAFYRVSLEKRPGHTPIPVLFGIDAVHGHGNIGSATIFPHNIALGMTRDPELLRRIGEVTAVEMTATGIDWTFAPCLSVVRDDRWGRTYEGFSEDPEIVASYSAAIVEGVQGKYGSKDFMAPGRIVASAKHFLADGGTDQGRDQGDARISEDELIRIHNAGYPPAIDAGVLTVMASFSSWQGIKHHGHKQLLTDVLKGQMGFNGFIVGDWNAHDQVPGCTKFNCPTSLIAGLDMYMAADSWKQLYENTLAQVKDGTIPMARLDDAVRRILRVKVLAGLFEKPAPKDRPGLPGLETLGSPEHRAVGREAVRKSLVLLKNDKGTLPLSPKARVLVAGDGADNIGKQSGGWTISWQGTGNRNDEFPGATSILGGIRDAVADAGGSVEFDVAGQYKTKPDVAIVVFGEEPYAEFQGDVETQEYQPDQKQDLALLKKLKDQGIPVVAVFLSGRPMWVNPELNASDAFVAAWLPGTEGGGVADVLFTDKAGKVQHDFAGKLSYSWPRTAAQTTVNRGDADYNPLFAYGYGLTYKDKSKVGTLPEESGVPAEARQNAGIYFRAGALRLPGRFL | +++ (+++ = 6 to 13 fold improvement over control Variant No. 2)
